In US20240392271, “ENGINEERED CASX REPRESSOR SYSTEMS” (Scribe Therapeutics Inc., published 2024):

Assays:
ELXR4-ZNF10 (#4.B) = biological target: T1, ELXR4-ZNF10 (#4.B) (synthetic construct); test: cell_activity; PAM TTC; day 73; settings: tags: DNMT3A CD, DNMT3L ID, ZNF10 KRAB fusion, NLS
T1 chain: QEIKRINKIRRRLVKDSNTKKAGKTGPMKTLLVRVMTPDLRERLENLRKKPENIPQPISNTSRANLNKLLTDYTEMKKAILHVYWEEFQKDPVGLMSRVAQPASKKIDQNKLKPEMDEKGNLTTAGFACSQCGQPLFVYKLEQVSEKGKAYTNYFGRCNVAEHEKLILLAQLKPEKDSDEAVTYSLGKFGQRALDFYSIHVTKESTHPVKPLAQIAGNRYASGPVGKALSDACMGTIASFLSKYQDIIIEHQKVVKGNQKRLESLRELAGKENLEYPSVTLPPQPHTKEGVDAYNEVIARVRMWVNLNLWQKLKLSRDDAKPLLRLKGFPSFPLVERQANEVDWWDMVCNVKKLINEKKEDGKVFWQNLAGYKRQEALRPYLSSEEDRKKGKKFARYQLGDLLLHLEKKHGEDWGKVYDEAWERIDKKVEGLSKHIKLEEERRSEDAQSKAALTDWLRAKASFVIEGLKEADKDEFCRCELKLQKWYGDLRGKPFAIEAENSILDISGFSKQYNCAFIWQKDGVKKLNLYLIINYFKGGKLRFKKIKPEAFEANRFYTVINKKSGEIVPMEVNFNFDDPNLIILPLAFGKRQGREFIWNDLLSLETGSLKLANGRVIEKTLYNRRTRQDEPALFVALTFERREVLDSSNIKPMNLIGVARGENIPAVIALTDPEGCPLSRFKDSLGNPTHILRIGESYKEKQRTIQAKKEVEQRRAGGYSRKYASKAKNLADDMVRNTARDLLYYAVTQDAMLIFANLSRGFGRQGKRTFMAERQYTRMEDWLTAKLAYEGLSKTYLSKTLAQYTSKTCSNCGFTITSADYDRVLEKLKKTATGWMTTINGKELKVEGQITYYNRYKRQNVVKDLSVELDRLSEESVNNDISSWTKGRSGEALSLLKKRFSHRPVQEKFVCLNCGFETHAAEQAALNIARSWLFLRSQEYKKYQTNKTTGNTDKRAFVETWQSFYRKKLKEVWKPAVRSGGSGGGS

ELXR4-ZIM3 (#4.A) = biological target: T2, ELXR4-ZIM3 (#4.A) (synthetic construct); test: cell_activity; PAM TTC; day 73; settings: tags: DNMT3A CD, DNMT3L ID, ZIM3 KRAB fusion, NLS
T2 chain: T1 chain

ELXR5-ZIM3 (#5.A) = ELXR5-ZIM3 (#5.A) (synthetic construct); test: cell_activity; PAM TTC; day 73; settings: tags: DNMT3A CD, DNMT3L ID, ZIM3 KRAB fusion, NLS
ELXR5-ZNF10 (#5.B) = ELXR5-ZNF10 (#5.B) (synthetic construct); test: cell_activity; PAM TTC; day 73; settings: tags: DNMT3A CD, DNMT3L ID, ZNF10 KRAB fusion, NLS
ELXR3-ZNF10 (#3.B) = biological target: T3, ELXR3-ZNF10 (#3.B) (synthetic construct); test: cell_activity; PAM TTC; day 50; settings: tags: DNMT3A CD, DNMT3L ID, ZNF10 KRAB fusion, NLS
T3 chain: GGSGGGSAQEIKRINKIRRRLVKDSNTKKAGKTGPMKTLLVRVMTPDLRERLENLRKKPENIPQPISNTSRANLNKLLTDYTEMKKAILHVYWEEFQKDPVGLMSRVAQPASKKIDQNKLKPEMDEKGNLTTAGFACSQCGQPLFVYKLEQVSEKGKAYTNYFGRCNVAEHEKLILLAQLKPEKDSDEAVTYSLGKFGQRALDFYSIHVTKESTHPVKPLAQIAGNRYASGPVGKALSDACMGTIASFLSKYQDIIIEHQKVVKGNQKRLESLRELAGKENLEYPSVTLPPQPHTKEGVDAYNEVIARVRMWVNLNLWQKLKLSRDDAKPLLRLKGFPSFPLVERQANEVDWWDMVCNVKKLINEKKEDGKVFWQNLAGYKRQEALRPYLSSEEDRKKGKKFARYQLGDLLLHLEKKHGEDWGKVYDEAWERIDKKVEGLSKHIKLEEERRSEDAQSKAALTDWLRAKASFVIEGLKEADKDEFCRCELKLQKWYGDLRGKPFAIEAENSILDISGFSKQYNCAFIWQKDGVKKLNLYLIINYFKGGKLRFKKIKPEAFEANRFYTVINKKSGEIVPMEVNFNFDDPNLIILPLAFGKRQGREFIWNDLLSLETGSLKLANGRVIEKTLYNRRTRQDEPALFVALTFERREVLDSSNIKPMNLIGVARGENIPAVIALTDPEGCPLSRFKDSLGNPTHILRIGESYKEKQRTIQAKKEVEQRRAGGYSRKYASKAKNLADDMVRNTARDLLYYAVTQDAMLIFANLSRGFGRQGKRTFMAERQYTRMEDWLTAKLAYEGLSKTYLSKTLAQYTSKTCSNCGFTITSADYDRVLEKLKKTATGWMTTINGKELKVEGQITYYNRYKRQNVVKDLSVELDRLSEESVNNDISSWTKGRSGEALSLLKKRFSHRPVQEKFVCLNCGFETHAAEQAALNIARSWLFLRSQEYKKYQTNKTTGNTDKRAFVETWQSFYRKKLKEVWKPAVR

ELXR2-ZIM3 (#2.A) = biological target: T4, ELXR2-ZIM3 (#2.A) (synthetic construct); test: cell_activity; PAM TTC; day 50; settings: tags: DNMT3A CD, DNMT3L ID, ZIM3 KRAB fusion, NLS
T4 chain: T3 chain

ELXR1-ZIM3 (#1.A) = biological target: T5, ELXR1-ZIM3 (#1.A) (synthetic construct); test: cell_activity; PAM TTC; day 50; settings: tags: DNMT3A CD, DNMT3L ID, ZIM3 KRAB fusion, NLS
T5 chain: T3 chain

ELXR2-ZNF10 (#2.B) = biological target: T6, ELXR2-ZNF10 (#2.B) (synthetic construct); test: cell_activity; PAM TTC; day 50; settings: tags: DNMT3A CD, DNMT3L ID, ZNF10 KRAB fusion, NLS
T6 chain: T3 chain

ELXR3-ZIM3 (#3.A) = biological target: T7, ELXR3-ZIM3 (#3.A) (synthetic construct); test: cell_activity; PAM TTC; day 50; settings: tags: DNMT3A CD, DNMT3L ID, ZIM3 KRAB fusion, NLS
T7 chain: T3 chain

ELXR1-ZNF10 (#1.B) = biological target: T8, ELXR1-ZNF10 (#1.B) (synthetic construct); test: cell_activity; PAM TTC; day 50; settings: tags: DNMT3A CD, DNMT3L ID, ZNF10 KRAB fusion, NLS
T8 chain: T3 chain

ELXR5-ZNF10 (#5.B) (synthetic construct), sequence (chain, as listed by the source): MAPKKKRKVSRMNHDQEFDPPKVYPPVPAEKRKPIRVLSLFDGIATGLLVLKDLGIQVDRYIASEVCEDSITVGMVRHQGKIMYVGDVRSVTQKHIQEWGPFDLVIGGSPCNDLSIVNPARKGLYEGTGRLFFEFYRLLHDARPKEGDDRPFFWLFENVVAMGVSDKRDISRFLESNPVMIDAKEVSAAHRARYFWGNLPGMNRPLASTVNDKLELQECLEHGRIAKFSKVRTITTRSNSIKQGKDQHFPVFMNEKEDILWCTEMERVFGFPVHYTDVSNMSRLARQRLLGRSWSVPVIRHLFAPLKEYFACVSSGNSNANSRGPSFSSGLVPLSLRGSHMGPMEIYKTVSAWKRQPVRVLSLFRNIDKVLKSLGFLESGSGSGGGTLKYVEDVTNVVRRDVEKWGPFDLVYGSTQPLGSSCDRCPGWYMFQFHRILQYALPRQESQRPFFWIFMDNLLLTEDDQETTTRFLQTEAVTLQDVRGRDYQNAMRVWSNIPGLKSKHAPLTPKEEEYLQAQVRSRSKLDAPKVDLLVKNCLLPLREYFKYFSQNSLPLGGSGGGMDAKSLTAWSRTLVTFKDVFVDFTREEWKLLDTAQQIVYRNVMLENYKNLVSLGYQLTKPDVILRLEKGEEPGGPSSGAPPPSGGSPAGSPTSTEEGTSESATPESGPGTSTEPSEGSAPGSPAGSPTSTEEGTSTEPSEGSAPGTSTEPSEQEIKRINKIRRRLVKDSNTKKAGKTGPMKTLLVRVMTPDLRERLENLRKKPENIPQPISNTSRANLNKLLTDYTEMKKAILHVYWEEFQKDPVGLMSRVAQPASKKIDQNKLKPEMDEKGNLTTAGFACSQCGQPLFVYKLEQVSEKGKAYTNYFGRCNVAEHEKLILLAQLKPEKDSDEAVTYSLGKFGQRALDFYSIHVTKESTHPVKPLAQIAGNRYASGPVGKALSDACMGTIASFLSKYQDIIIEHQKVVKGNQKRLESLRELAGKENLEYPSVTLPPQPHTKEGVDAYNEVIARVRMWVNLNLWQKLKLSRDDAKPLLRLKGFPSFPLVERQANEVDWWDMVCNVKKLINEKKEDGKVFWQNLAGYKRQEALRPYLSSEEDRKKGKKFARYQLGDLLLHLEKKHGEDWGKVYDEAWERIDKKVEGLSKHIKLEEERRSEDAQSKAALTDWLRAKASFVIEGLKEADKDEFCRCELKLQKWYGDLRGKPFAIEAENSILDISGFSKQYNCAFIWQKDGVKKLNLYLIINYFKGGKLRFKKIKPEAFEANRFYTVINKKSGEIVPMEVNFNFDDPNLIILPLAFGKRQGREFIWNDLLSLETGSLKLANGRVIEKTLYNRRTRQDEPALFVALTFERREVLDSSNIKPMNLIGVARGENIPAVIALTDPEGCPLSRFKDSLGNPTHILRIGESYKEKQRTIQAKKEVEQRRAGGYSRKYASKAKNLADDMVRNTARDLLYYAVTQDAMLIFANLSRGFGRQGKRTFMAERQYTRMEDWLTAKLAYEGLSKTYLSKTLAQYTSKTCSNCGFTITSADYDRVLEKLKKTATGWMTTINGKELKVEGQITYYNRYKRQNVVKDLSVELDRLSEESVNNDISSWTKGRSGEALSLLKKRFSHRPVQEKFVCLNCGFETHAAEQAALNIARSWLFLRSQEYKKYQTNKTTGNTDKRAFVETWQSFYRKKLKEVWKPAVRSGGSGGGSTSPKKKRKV
ELXR5-ZIM3 (#5.A) (synthetic construct), sequence (chain, as listed by the source): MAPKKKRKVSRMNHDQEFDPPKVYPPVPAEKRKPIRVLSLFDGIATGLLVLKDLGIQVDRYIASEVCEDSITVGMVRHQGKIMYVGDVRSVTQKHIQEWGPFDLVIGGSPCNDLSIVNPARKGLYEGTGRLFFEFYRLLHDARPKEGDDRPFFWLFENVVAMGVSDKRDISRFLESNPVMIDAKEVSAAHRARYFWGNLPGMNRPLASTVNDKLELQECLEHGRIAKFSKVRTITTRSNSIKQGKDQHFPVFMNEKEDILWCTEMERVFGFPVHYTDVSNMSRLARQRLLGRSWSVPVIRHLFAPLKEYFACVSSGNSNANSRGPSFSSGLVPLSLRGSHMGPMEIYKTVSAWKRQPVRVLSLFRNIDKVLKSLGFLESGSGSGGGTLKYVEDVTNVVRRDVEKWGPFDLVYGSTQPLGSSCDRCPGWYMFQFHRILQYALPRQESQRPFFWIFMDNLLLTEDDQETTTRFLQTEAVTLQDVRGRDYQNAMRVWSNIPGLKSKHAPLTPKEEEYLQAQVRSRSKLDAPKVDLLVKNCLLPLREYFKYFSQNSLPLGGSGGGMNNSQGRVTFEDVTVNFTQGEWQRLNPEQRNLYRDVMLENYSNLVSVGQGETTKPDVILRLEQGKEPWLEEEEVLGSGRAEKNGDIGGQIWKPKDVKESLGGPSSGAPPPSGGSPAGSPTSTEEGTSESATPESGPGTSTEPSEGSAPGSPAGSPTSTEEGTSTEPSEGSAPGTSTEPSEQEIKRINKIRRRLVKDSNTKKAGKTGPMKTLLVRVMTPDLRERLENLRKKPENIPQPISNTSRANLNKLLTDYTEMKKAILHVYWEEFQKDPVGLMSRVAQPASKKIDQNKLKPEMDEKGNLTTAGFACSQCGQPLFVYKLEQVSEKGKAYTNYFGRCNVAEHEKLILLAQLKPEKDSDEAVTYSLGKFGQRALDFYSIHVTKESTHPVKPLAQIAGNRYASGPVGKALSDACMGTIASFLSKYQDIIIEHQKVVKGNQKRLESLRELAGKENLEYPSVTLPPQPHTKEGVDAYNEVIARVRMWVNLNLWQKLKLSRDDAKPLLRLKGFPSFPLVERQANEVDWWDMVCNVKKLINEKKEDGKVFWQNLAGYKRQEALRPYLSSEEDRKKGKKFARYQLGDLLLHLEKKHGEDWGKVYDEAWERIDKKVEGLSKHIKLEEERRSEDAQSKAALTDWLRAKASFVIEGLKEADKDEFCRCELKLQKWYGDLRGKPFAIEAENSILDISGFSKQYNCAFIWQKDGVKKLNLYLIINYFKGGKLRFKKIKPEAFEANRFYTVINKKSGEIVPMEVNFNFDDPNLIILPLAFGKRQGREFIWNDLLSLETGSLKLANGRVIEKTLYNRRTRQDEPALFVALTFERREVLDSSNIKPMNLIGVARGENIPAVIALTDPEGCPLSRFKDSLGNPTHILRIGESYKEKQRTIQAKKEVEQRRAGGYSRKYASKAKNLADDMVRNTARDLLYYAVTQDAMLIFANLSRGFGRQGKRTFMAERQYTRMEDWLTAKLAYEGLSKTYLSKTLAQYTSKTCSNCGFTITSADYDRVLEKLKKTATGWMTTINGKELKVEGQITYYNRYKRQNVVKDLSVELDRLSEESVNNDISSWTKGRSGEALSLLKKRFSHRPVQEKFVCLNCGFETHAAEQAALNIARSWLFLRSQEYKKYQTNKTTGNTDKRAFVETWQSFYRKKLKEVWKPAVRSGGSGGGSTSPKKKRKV

B1: gRNA scaffold 174 + spacer 7.37 ; B2M target 7.37 (ssRNA ; dsDNA)
RNA: ACUGGCGCUUUUAUCUGAUUACUUUGAGAGCCAUCACCAGCGACUAUGUCGUAGUGGGUAAAGCUCCCUCUUCGGAGGGAGCAUCAAAGGGCCGAGAUGUCUCGCUCCG
DNA 1: GGCCGAGATGTCTCGCTCCG
DNA 2: CGGAGCGAGACATCTCGGCC
- activity (ELXR4-ZNF10 (#4.B)): 55.2 % HLA-negative cells
- activity (ELXR4-ZIM3 (#4.A)): 69 % HLA-negative cells
- activity (ELXR5-ZIM3 (#5.A)): 74.9 % HLA-negative cells
- activity (ELXR5-ZNF10 (#5.B)): 60.8 % HLA-negative cells
- activity (ELXR3-ZNF10 (#3.B)): 17.1 % HLA-negative cells
- activity (ELXR2-ZIM3 (#2.A)): 58.8 % HLA-negative cells
- activity (ELXR1-ZIM3 (#1.A)): 73.7 % HLA-negative cells
- activity (ELXR2-ZNF10 (#2.B)): 36.9 % HLA-negative cells
- activity (ELXR3-ZIM3 (#3.A)): 17.5 % HLA-negative cells
- activity (ELXR1-ZNF10 (#1.B)): 70 % HLA-negative cells
